From patent US20190284258A1, “HAEMADIPSA SYLVESTRIS ANTITHROMBOTIC PEPTIDE SYLVESTIN AND USE THEREOF” (priority 2016, published 2019)

Molecular target: FXIIa
Assay: enzyme inhibition kinetics, chromogenic substrate, OD 405 nm

Chain of FXIIa (P00748 20-372, chain 1 of 2): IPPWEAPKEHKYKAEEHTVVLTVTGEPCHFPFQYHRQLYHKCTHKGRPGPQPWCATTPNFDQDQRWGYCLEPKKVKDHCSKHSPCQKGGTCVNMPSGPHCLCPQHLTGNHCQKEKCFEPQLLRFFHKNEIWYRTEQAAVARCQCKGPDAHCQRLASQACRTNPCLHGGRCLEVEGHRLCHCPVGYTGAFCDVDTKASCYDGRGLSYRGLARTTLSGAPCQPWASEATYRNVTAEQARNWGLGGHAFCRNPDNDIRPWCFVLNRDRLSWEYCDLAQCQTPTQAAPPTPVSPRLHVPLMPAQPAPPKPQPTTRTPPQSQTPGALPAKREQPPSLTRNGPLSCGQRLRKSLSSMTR
Chain of FXIIa (P00748 373-615, chain 2 of 2): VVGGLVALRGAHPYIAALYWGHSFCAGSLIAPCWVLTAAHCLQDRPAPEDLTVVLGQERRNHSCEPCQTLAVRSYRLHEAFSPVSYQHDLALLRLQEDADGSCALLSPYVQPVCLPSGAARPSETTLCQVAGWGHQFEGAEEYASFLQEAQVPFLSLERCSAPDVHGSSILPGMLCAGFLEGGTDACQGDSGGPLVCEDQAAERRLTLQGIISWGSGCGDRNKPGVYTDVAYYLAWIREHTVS

“Haemadipsa sylvestris antithrombotic peptide Sylvestin” showed a Ki of 2900 nM.
